To fix the notation:
T1: mouse JIP3[186-505] (mouse, UniProt Q9ESN9-5 186-505)
T1 sequence (looked up): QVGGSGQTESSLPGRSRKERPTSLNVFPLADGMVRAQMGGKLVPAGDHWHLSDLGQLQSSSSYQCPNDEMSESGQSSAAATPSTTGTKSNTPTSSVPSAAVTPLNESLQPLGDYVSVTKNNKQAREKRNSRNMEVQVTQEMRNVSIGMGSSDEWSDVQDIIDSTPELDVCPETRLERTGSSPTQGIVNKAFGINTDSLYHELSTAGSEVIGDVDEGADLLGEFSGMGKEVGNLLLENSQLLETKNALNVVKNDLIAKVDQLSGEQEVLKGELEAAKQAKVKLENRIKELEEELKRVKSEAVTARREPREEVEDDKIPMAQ

T2: full-length RILP (human, UniProt Q96NA2-1 1-401)
T2 sequence (looked up): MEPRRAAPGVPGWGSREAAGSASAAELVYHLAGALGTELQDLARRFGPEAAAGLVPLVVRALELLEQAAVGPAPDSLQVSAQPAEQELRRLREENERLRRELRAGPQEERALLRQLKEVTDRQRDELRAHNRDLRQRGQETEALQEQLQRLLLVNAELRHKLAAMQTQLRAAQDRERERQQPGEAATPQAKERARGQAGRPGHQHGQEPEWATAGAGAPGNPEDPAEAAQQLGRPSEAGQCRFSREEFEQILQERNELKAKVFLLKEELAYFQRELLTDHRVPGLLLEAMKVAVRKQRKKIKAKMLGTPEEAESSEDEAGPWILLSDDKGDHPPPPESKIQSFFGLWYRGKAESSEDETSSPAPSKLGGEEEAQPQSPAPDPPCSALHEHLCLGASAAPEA

B1: JIP3[1-108] (domain or fragment, human, UniProt Q9UPT6-1 1-108, looked up)
chain: MMEIQMDEGGGVVVYQDDYCSGSVMSERVSGLAGSIYREFERLIHCYDEEVVKELMPLVVNVLENLDSVLSENQEHEVELELLREDNEQLLTQYEREKALRRQAEEKF
B2: MBP-tagged JIP3[1-108] (domain or fragment, human, UniProt Q9UPT6-1 1-108, looked up)
chain: B1 chain
B3: JIP3[1-108] V60Q (domain or fragment, human, UniProt Q9UPT6-1 1-108, looked up)
chain: B1 chain with V60Q
B4: DLIC1[440-455] (domain or fragment, human)
chain: SEGVLANFFNSLLSKK
B5: MBP::UNC-16[1-120] (domain or fragment, C. elegans, UniProt P34609-1 1-120, looked up)
chain: MACNLSPVNEMADSITSSTPSEIVYGGPGSPDEHRTMSDKVQTMASAIYRELETMIKVHGEDGVKTLMPLVVNVLEALDLAYLERDEQTAELEMLKEDNEQLQTQYEREKALRKQTEQKY
B6: MBP::UNC-16[1-120] V72Q (domain or fragment, C. elegans, UniProt P34609-1 1-120, looked up)
chain: B5 chain with V72Q
B7: GST::DLI-1[369-442] (domain or fragment, C. elegans, UniProt G5ED34 369-442, looked up)
chain: TTAAPKPRTMQEEPTDKDSPLANFFSNLLNKDKPSKVSSPSTVSQPMDAAATQAQLDRLLKSAQSPKPQPRDSD
B8: JIP4[1-103] (domain or fragment, human, UniProt O60271-1 1-103, looked up)
chain: MELEDGVVYQEEPGGSGAVMSERVSGLAGSIYREFERLIGRYDEEVVKELMPLVVAVLENLDSVFAQDQEHQVELELLRDDNEQLITQYEREKALRKHAEEKF
B9: GST-tagged KLC1[185-501] (domain or fragment, human, UniProt Q07866-1 185-501, looked up)
chain: DDPGQGIQQQHSSAAAAAQQGGYEIPARLRTLHNLVIQYASQGRYEVAVPLCKQALEDLEKTSGHDHPDVATMLNILALVYRDQNKYKDAANLLNDALAIREKTLGKDHPAVAATLNNLAVLYGKRGKYKEAEPLCKRALEIREKVLGKDHPDVAKQLNNLALLCQNQGKYEEVEYYYQRALEIYQTKLGPDDPNVAKTKNNLASCYLKQGKFKQAETLYKEILTRAHEREFGSVDDENKPIWMHAEEREECKGKQKDGTSFGEYGGWYKACKVDSPTVTTTLKNLGALYRRQGKFEAAETLEEAAMRSRKQGLDNV
B10: RILP[1-106] (domain or fragment, human, UniProt Q96NA2-1 1-106, looked up)
chain: MEPRRAAPGVPGWGSREAAGSASAAELVYHLAGALGTELQDLARRFGPEAAAGLVPLVVRALELLEQAAVGPAPDSLQVSAQPAEQELRRLREENERLRRELRAGP
B11: DLIC-C helix 1 peptide (residues 433-458) (peptide, UniProt Q9Y6G9 433-458, looked up)
peptide: NMKAGATSEGVLANFFNSLLSKKTGS
B12: GST::DLIC1[388-523] (domain or fragment, human, UniProt Q9Y6G9 388-523, looked up)
chain: PTAAGRPVDASPRVPGGSPRTPNRSVSSNVASVSPIPAGSKKIDPNMKAGATSEGVLANFFNSLLSKKTGSPGGPGVSGGSPAGGAGGGSSGLPPSTKKSGQKPVLDVHAELDRITRKPVTVSPTTPTSPTEGEAS

The target of one data set is DLIC1[388-523] (human, UniProt Q9Y6G9 388-523). Description: ITC. For orientation: ITC needs no label: the signal is the heat of the interaction.
The data set “AUC” deals with the molecule itself. The data set is described as follows: AUC.
In data set [1] the target is T3, GST::KIF5C[807-956] (mouse, UniProt P28738 807-956). The data set is described as follows: pull-down.
Data set [2] has as its target T3, GST::KIF5C[807-956]. The data set is described as follows: pull-down. This is another data set of the same source.
The data set “RILP[1-106]” addresses B10. Description: SEC. A general note: In gel filtration, larger molecules generally elute earlier.
A further data set deals with UNC-116[675-815] (C. elegans, UniProt P34540 675-815). Description: pull-down.
The data set “MBP::UNC-16[1-120]” has as its target B5. The data set is described as follows: pull-down.
For another data set, the target named is T1, mouse JIP3[186-505]. The data set is described as follows: pull-down.
For the data set “GST::DLIC1[388-523]”, the target named is B12. The data set is described as follows: pull-down.
The target of the data set “MBP-tagged JIP3[1-108]” is B2. The data set is described as follows: pull-down.
The target of the next data set is T2, full-length RILP. The data set is described as follows: pull-down.

Numbering of substitutions follows the chain as printed. Names and notes keep the numbering of the source. Where two headings read alike, the source gives them in different places.

T3 sequence (P28738 807-956): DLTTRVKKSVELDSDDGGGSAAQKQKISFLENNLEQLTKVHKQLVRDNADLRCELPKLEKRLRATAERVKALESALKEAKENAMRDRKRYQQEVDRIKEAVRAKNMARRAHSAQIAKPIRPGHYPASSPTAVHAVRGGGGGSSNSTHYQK
UNC-116[675-815], sequence (P34540 675-815): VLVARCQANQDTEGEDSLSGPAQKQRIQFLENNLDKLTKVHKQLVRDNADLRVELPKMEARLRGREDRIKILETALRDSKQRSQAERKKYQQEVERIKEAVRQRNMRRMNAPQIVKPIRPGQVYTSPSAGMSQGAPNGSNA

In the case of B1, in the data set with DLIC1[388-523], the Kd was around 1000 nM and the “stoichiometry N” value was 2 DLIC1-C molecules per RH1 dimer. Besides, in the data set “AUC”, the “stoichiometry N” value came out at 2. The binding result in the data set with GST::KIF5C[807-956] [1] is recorded as “binds”.
For the molecule B2, the binding result with GST::KIF5C[807-956] [2] is “binds”.
In the case of B3, the “stoichiometry N” value in “AUC” stood at 2. Further, in the data set with GST::KIF5C[807-956] [1], the binding result is on record as “binds”.
Consider B4, for which the binding result in the data set with RILP[1-106] was “binds”.
For B5, the binding result in the data set with UNC-116[675-815] is “binds”.
For B6, in the data set with UNC-116[675-815], the binding result is “binds”.
For B7, the binding result with MBP::UNC-16[1-120] is on record as “binds”.
Regarding B8, in the data set with DLIC1[388-523], the Kd is around 4000 nM and the “stoichiometry N” value is 2 DLIC1-C molecules per RH1 dimer. The “stoichiometry N” value in the data set “AUC” amounted to 2.
B9: the binding result with mouse JIP3[186-505] is “binds”.
As for B10, in the data set with GST::DLIC1[388-523], the binding result was “binds”.
B11: the binding result in the data set with MBP-tagged JIP3[1-108] is listed as “binds”.
Turning to B12, the binding result in the data set with full-length RILP is reported as “binds”.

For orientation: Kd means the constant that tells how readily two partners part at equilibrium. In general, stoichiometry N refers to a count of units in the complex or per binding partner.

These data come from PMC9284427 (The Journal of Cell Biology, 2022).
